Reference: patent CN114349855A (BAISIS MEDICAL DIAGNOSIS SCIENCE AND TECH BEIJING LIMITED …, dated 2022)

Experiments:
Assay in all cases: ELISA, S protein coated at 2 μg/mL
新型冠状病毒Alpha Spike蛋白 = target: T1, 新型冠状病毒Alpha Spike蛋白 (新型冠状病毒 (SARS-CoV-2) Alpha突变株, UniProt P0DTC2 16-1213)
T1 construct: also called Alpha的S蛋白

新型冠状病毒Beta Spike蛋白 = target: T2, 新型冠状病毒Beta Spike蛋白 (新型冠状病毒 (SARS-CoV-2) Beta突变株, UniProt P0DTC2 16-1213)
T2 construct: also called Beta的S蛋白

新型冠状病毒Gamma Spike蛋白 = target: T3, 新型冠状病毒Gamma Spike蛋白 (新型冠状病毒 (SARS-CoV-2) Gamma突变株, UniProt P0DTC2 16-1213)
T3 construct: also called Gamma的S蛋白

Measured: binding result

B1: 抗体 克隆号9A5D9 22G3 (antibody, V domains shown)
VH: EVQLVESGGGLVKPGGSLRLSCAASGFTFSSYSMNWVRQAPGKGLEWVSSISRSSSYIYYADSVMGRFTISRDNAKNSLYLQMNSLRADDTAVYYCARDRGSGNYYVDGLDIWGQGTMVTVSS
VL: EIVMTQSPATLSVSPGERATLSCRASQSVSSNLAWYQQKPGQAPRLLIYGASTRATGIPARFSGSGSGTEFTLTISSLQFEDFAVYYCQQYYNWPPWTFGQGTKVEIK
no binding (tested: 1 μg/mL): all assays above

B2: 抗体 克隆号7D7G3D4 (antibody, V domains shown)
VH: EVQLVESGGGLVQPGGSLRLSCAASGLTVSSNHMSWVRQAPGKGLEWVSIIYSGGSTYYADSVKGRFTISRDNSKNTLYLQMDSLRAEDTTVYYCARAQGGWELPGAGYYYFNGMDFWGQGTTVTVSS
VL: DIQMTQSPSSLSASVGDRVTITCRASQSISTYLNWYQQKPGKAPKLLIYAASNLQSGVPSRFSGSASGTDFTLTISSLQPEDFATYFCQQSYSTSFTFGPGTKVDIK
no binding (tested: 1 μg/mL): all assays above

B3: 抗体 克隆号9A5F6 23F1 (antibody, V domains shown)
VH: QVQLVESGGGVVQPGRSLRLSCAASGFTFSSYAMYWVRQAPGKGLECVAGISYDGSNKYYADSVKGRFTISRENSKNTLYLQMNSLISEDTAVYYCARAEWDYWGQGTLVTVSS
VL: SYELTQPSSVSVSPGQTARITCSGDVLAKKYARWFQQKPGQAPVLVIYKDSERPSGIPERFSGSSSGTTVTLTISGAQVEDEADYYCYSAADNNLGVFGGGTKL
no binding (tested: 1 μg/mL): all assays above
